According to patent publication US20200206198A1, “CFTR CHANNEL ACTIVATOR FOR USE IN THE TREATMENT AND/OR PREVENTION OF GLUTEN SENSITIVITY CONDITIONS” (priority 2017, published 2020):

Target: T1, TG2 (Homo sapiens, UniProt P21980)
T1 construct: Immunoprecipitations of endogenous proteins were performed on 500 μg of lysates from Caco-2 cells; host or cells: Caco-2
T1 sequence (P21980 1-687): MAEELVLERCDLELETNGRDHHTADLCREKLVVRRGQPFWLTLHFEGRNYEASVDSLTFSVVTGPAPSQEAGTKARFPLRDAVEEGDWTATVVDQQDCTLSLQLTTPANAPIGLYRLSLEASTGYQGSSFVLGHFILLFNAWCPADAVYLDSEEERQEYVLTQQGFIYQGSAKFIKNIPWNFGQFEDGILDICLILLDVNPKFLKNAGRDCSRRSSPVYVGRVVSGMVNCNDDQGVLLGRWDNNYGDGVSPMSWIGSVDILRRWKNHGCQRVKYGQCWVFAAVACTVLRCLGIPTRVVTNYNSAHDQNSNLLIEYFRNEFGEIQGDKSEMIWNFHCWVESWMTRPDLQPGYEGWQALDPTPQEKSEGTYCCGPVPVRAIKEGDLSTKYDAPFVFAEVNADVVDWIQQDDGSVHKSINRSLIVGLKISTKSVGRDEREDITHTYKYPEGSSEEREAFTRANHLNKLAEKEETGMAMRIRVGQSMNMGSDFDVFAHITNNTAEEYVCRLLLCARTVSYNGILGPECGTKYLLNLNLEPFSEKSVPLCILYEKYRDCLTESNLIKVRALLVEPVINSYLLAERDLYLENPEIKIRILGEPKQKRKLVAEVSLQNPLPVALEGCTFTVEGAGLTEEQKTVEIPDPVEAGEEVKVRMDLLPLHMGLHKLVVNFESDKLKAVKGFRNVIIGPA
Experiment: TG2 interaction and TG2 activity in Caco-2 cells
Type: cell-based
Experimental: Human colon adenocarcinoma-derived Caco-2 and T84 cells were obtained from the ATCC. Cells were maintained in T25 flask in Modified Eagle Medium (MEM) for Caco-2, or Ham's F12+DMEM (1:1) for T84, supplemented with 10% fetal bovine serum (FBS), 2 mM Glutamine+1% Non Essential Amino Acids (NEAA) and the antibiotics penicillin\streptomycin (100 units/ml) (all reagents from Lonza) (Luciani, A., et al. 2010. Cells were grown in Transwells (Corning, 3470 or 3460) under the normal condition (Luciani, A., et al. 2012). Briefly, 8×10^4 or 5×10^5 cells were seeded in 6.5-mm diameter or 12-mm diameter, respectively, and grown until the RT reached 800 to 1,200 Ω·cm2. Transwells with a pore size of 0.4 μm were used. Medium in both the apical and basolateral chambers was changed every other day. Cells were treated with 20 μg/ml of either α-gliadin peptide P31-43 or […] or scrambled PGAV or modified P31-43 either biotin-tagged or not, for different time point (from 1 h short challenge up to 24 h). Cells were also treated with 50 or 100 μg/ml of P57-68 or PGAV peptides for 3 h. Caco-2 or T84 cells were also treated with: CFTR potentiators VX-770 (10 μM) or VX-532 (20 μM) (Selleck chemicals) or Genistein (10 μM) (Sigma-Aldrich) or in presence or absence of CFTR inhibitor172 (CFTRinh172, 20 μM) or 3-methyl-adenine (3-MA, 20 μM) (Calbiochem), Z-DON (20 nM, Zedira) or BAPTA-AM (10 μM, Calbiochem).
The whole lysate or membrane fraction proteins of cell lines and mice intestine homogenates were obtained from treated and untreated cells or mice as described. The equal amount of protein were resolved by SDS-PAGE gel and blotted with antibodies against: SQSTM1, (Sigma Aldrich, 108k4767) 1:1000, PPARγ (Santa Cruz Biotechnology, sc7273) 1:500, BECN1 (Abcam, ab58878) 1:1000, CFTR clone M3A7 (Abcam, ab4067) 1:500, phospho-ERK1/2 (php42/44, Cell Signaling Technology, #91101) 1:1000, UVRAG (Santa Cruz Biotechnology sc8215) 1:1000, NHERF-1 (BD, 611161) 1:1000, EZRIN (BD, 610603) 1:1000, hVps34 (SigmaV9764) 1:300, biotin (Abcam, ab1227) 1:2000, PKAr2a (BD, 610625) 1:500, Ubiquitin (Cell Signaling clone P4D1, #3936) 1:1000, CHIP (Calbiochem PC711) 1:500, Caspase-1 p10 (M-20) (Santa Cruz Biotechnology, sc-514) 1:200, NLRP3 (Abcam, ab4207), 1:500, IDO1 (monoclonal; cv152) 1:1000^[80], used as primary antibodies. Normalization was performed by probing the membrane with anti-β-actin (Cell Signaling, #4970) 1:1000, anti-Gapdh (Sigma-Aldrich, G8795) 1:1000 and anti-flottilin (Abcam ab15148) 1:1000 antibodies. Immunoprecipitations of endogenous proteins were performed on 500 μg of lysates from Caco-2 cells. The proteins were incubated for 12-18 h at 4° C. with 10 ug\ml of specific antibody followed by the addition of Protein A/G-agarose beads for 4 h at 4° C. The beads were then washed three times with lysis buffer and Laemmli's sample buffer was added to the samples. The membranes were then blotted with: CFTR clone CF3 (Abcam, ab2784) 1:1000, TG2 (clone CUB7402; NeoMarkers) 1:1000, CHIP (Calbiochem PC711) 1:500, Ubiquitin (Cell Signaling clone P4D1 3936), isopeptide (Abcam 422) 1:1000, PKAR2 (BD 610625) 1:500.
For detection of complex with biotnylated-P31-43 or immune-complex of glutamime-lysine bonds, the beads were resolved in non-reducing and non-denaturating conditions, and then blotted with Streptavidin-HRP (Sigma 52438) 1:3000 or anti-biotin (Abcam ab2103) 1:2500 and anti-isopeptide (Abcam 422) 1:1000.
TG2 enzymatic activity in Caco-2, treated as described above, was detected: 1) by incubating unfixed sections with biotin-mono-dansylcadaverine (MDC, 10 mM, Molecular Probe) for 1 h at room temperature and then stained with Alexa-fluor488-Streptavidin, as previously described (JI2008/2009) or 2) or by incorporation of 5(biotinamido)pentylamines (BAP) into protein substrates. For BAP-incorporation, 2 mM BAP (Soltec Ventures, B110) were directly added into the medium together with the indicated treatments. […]

Molecule | TG2-mediated glutamine-lysine bonds in CFTR immunoprecipitates (Caco-2 cells) | covalent interaction with TG2 (Caco-2 cells, shortly upon challenge) | interaction between TG2 and CFTR by co-immunoprecipitation (cells incubated with peptide) | effect on P31-43-induced interaction of TG2 and CFTR (Caco-2 cells) | effect on P31-43-induced TG2 activation (Caco-2 cells preincubated with VX-770) | impact on TG2-mediated transamidation reactions (Caco-2 cells pulsed with Ca2+)
α-gliadin peptide LGQQQPFPPQQPY (SEQ ID 1), induces an enterocyte stress response (P31-43 sequence of alpha-gliadin) | induced the formation of TG2-mediated glutamime-lysine bonds | covalently interacted with TG2 | stimulated the interaction between TG2 and CFTR | – | – | –
CC(C)(C)c1cc(C(C)(C)C)c(NC(=O)c2c[nH]c3ccccc3c2=O)cc1O [VX-770, N-(2,4-di-tert-butyl-5-hydroxyphenyl)-4-oxo-1,4-dihydroquinoline-3-carboxamide] | – | – | – | abolished the P31-43-induced interaction of TG2 and CFTR | negated the capability of P31-43 5 to induce TG2 activation | has no impact on TG2mediated transamidation reactions
